The results in this text go back to the supplement of paper PMC5998384.

Series [1] deals with HeLa Kyoto. Description: thermal stability score vs G1/S (z-score of summed log2 fold changes over temperatures); higher = more thermally stable than in G1/S.
For series [2], the system named is HeLa Kyoto. The series can be described thus: melting temperature (median over replicates), in situ; higher = more thermally stable.
Series [3] concerns HeLa Kyoto. The series can be described thus: solubility change mitosis vs G1/S (difference of NP-40 vs SDS log2 ratios) (log2 ratio difference); higher = more soluble in mitosis.
The subject of series [4] is HeLa Kyoto. The series can be described thus: solubility in G1/S (NP-40 vs SDS abundance) (log2 ratio); higher = more soluble. As to conditions: cell cycle stage: G1/S.
[5] abbreviates: cell cycle stage: early G1 (4.5 h after nocodazole release).
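Wherever melting temperature (median over replicates), in situ is given: HeLa Kyoto cells synchronized by double thymidine or nocodazole block, proteins quantified by TMT10plex mass spectrometry, three independent biological replicates.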
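Wherever solubility change mitosis vs G1/S (difference of NP-40 vs SDS log2 ratios) is given: synchronized HeLa Kyoto cells (double thymidine block for G1/S, nocodazole release for mitosis), protein amounts in NP-40 versus SDS lysates quantified by mass spectrometry, three biological replicates.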
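Wherever solubility in G1/S (NP-40 vs SDS abundance) is given: HeLa Kyoto cells arrested at G1/S by double thymidine block, proteins quantified by TMT10plex mass spectrometry in mild NP-40 versus SDS extracts, three biological replicates.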
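Wherever thermal stability score vs G1/S (z-score of summed log2 fold changes over temperatures) is given: synchronized HeLa Kyoto cells, proteins quantified by TMT10plex mass spectrometry, three biological replicates, mitosis taken 0.5 h after nocodazole release, G1/S directly after double thymidine block.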

In the case of “MLLLTRSPTAWHRLSQLKPRVLPGTLGGQALHLRSWLLSRQGPAETGGQGQPQGPGLRTRLLITGLFGAGLGGAWLALRAEKERLQQQKRTEALRQAAVGQGDFHLLDHRGRARCKADFRGQWVLMYFGFTHCPDICPDELEKLVQVVRQLEAEPGLPPVQPVFITVDPERDDVEAMARYVQDFHPRLLGLTGSTKQVAQASHSYRVYYNAGPKDEDQDYIVDHSIAIYLLNPDGLFTDYYGRSRSAEQISDSVRRHMAAFRSVLS [SCO2]”, the thermal stability score in series [1] (setting [5]) turned out to be 1.37; in series [1] (cell cycle stage: mitosis), 1.52. For the same sequence, the melting temperature stood at 50.5 °C in series [2] (cell cycle stage: G1/S) and 51.5 °C in series [2] (cell cycle stage: mitosis). Besides, in series [3], the “solubility change mitosis (log2)” value is -0.127. For the same sequence, the “solubility in G1/S (log2)” value in series [4] worked out at 0.334.
“MLLSVPLLLGLLGLAVAEPAVYFKEQFLDGDGWTSRWIESKHKSDFGKFVLSSGKFYGDEEKDKGLQTSQDARFYALSASFEPFSNKGQTLVVQFTVKHEQNIDCGGGYVKLFPNSLDQTDMHGDSEYNIMFGPDICGPGTKKVHVIFNYKGKNVLINKDIRCKDDEFTHLYTLIVRPDNTYEVKIDNSQVESGSLEDDWDFLPPKKIKDPDASKPEDWDERAKIDDPTDSKPEDWDKPEHIPDPDAKKPEDWDEEMDGEWEPPVIQNPEYKGEWKPRQIDNPDYKGTWIHPEIDNPEYSPDPSIYAYDNFGVLGLDLWQVKSGTIFDNFLITNDEAYAEEFGNETWGVTKAAEKQMKDKQDEEQRLKEEEEDKKRKEEEEAEDKEDDEDKDEDEEDEEDKEEDEEEDVPGQAKDEL [CALR]”: the thermal stability score in series [1] (setting [5]) was found to be 3.64; in series [1] (cell cycle stage: mitosis), 3.96. For the same sequence, the melting temperature in series [2] (cell cycle stage: G1/S) is 54.6 °C; in series [2] (cell cycle stage: mitosis), 54.9 °C. In addition, the “solubility change mitosis (log2)” value in series [3] was 0.0133. The “solubility in G1/S (log2)” value in series [4] stood at 0.0117.
As to “MLLWPLLLLLLLLPTLALLRQQRSQDARLSWLAGLQHRVAWGALVWAATWQRRRLEQSTLHVHQSQQQALRWCLQGAQRPHCSLRRSTDISTFRNHLPLTKASQTQQEDSGEQPLPPTSNQDLGEASLQATLLGLAALNKAYPEVLAQGRTARVTLTSPWPRPLPWPGNTLGQVGTPGTKDPRALLLDALRSPGLRALEAGTAVELLDVFLGLETDGEELAGAIAAGNPGAPLRERAAELREALEQGPRGLALRLWPKLQVVVTLDAGGQAEAVAALGALWCQGLAFFSPAYAASGGVLGLNLQPEQPHGLYLLPPGAPFIELLPVKEGTQEEAASTLLLAEAQQGKEYELVLTDRASLTRCRLGDVVRVVGAYNQCPVVRFICRLDQTLSVRGEDIGEDLFSEALGRAVGQWAGAKLLDHGCVESSILDSSAGSAPHYEVFVALRGLRNLSEENRDKLDHCLQEASPRYKSLRFWGSVGPARVHLVGQGAFRALRAALAACPSSPFPPAMPRVLRHRHLAQCLQERVVS [GHDC]”, the thermal stability score was 0.585 in series [1] (setting [5]) and 1.25 in series [1] (cell cycle stage: mitosis). The melting temperature is 53.7 °C in series [2] (cell cycle stage: G1/S) and 55.1 °C in series [2] (cell cycle stage: mitosis). For the same sequence, the “solubility change mitosis (log2)” value in series [3] was -0.154. Besides, in series [4], the “solubility in G1/S (log2)” value was -0.104.
Regarding “MLMLFVFGVLLHEVSLSGQNEAPPNTHSIPGEPLYNYASIRLPEEHIPFFLHNNRHIATVCRKDSLCPYKKHLEKLKYCWGYEKSCKPEFRFGYPVCSYVDMGWTDTLESAEDIFWKQADFGYARERLEEMHVLCQPKETSDSSLVCSRYLQYCRATNLYLDLRNIKRNHDRFKEDFFQSGEIGGHCKLDIRTLTSEGQRKSPLQSWFAELQSYTQLNFRPIEDAKCDIVIEKPTYFMKLDAGVNMYHHFCDFINLYITQHVNNSFSTDVYIVMWDTSSYGYGDLFSDTWNAFTDYDVIHLKTYDSKRVCFKEAVFSLLPRMRYGLFYNTPLISGCQNTGLFRAFAQHVLHRLNITQEGPKDGKIRVTILARSTEYRKILNQNELVNALKTVSTFEVQIVDYKYRELGFLDQLRITHNTDIFIGMHGAGLTHLLFLPDWAAVFELYNCEDERCYLDLARLRGVHYITWRRQNKVFPQDKGHHPTLGEHPKFTNYSFDVEEFMYLVLQAADHVLQHPKWPFKKKHDEL [EOGT]”, the values for the thermal stability score in series [1] (setting [5]) and in series [1] (cell cycle stage: mitosis) were 2.26 and 3.42, respectively. Also, the values for the melting temperature in series [2] (cell cycle stage: G1/S) and in series [2] (cell cycle stage: mitosis) were 53.3 °C and 54.9 °C, respectively. In addition, the “solubility change mitosis (log2)” value in series [3] was -0.00851. The “solubility in G1/S (log2)” value in series [4] was -0.298.
“MLPARCARLLTPHLLLVLVQLSPARGHRTTGPRFLISDRDPQCNLHCSRTQPKPICASDGRSYESMCEYQRAKCRDPTLGVVHRGRCKDAGQSKCRLERAQALEQAKKPQEAVFVPECGEDGSFTQVQCHTYTGYCWCVTPDGKPISGSSVQNKTPVCSGSVTDKPLSQGNSGRKDDGSKPTPTMETQPVFDGDEITAPTLWIKHLVIKDSKLNNTNIRNSEKVYSCDQERQSALEEAQQNPREGIVIPECAPGGLYKPVQCHQSTGYCWCVLVDTGRPLPGTSTRYVMPSCESDARAKTTEADDPFKDRELPGCPEGKKMEFITSLLDALTTDMVQAINSAAPTGGGRFSEPDPSHTLEERVVHWYFSQLDSNSSNDINKREMKPFKRYVKKKAKPKKCARRFTDYCDLNKDKVISLPELKGCLGVSKEGRLV [SMOC1]”: the results for the thermal stability score in series [1] (setting [5]) and in series [1] (cell cycle stage: mitosis) were -1.94 and -1.17, respectively. For the same sequence, in series [2] (cell cycle stage: mitosis), the melting temperature amounted to 54.9 °C. Further, in series [3], the “solubility change mitosis (log2)” value was -0.0568. Moreover, the “solubility in G1/S (log2)” value in series [4] is 0.221.
“MLPLSIKDDEYKPPKFNLFGKISGWFRSILSDKTSRNLFFFLCLNLSFAFVELLYGIWSNCLGLISDSFHMFFDSTAILAGLAASVISKWRDNDAFSYGYVRAEVLAGFVNGLFLIFTAFFIFSEGVERALAPPDVHHERLLLVSILGFVVNLIGIFVFKHGGHGHSHGSGHGHSHSLFNGALDQAHGHVDHCHSHEVKHGAAHSHDHAHGHGHFHSHDGPSLKETTGPSRQILQGVFLHILADTLGSIGVIASAIMMQNFGLMIADPICSILIAILIVVSVIPLLRESVGILMQRTPPLLENSLPQCYQRVQQLQGVYSLQEQHFWTLCSDVYVGTLKLIVAPDADARWILSQTHNIFTQAGVRQLYVQIDFAAM [SLC30A7]”: the results for the thermal stability score in series [1] (setting [5]) and in series [1] (cell cycle stage: mitosis) were 0.255 and -1.45, respectively. Moreover, the melting temperature in series [2] (cell cycle stage: G1/S) amounted to 57.8 °C; in series [2] (cell cycle stage: mitosis), 55.4 °C. Besides, in series [3], the “solubility change mitosis (log2)” value is -0.278. Also, in series [4], the “solubility in G1/S (log2)” value is 0.101.
